The values that follow come from publication PMC4642536, “Structural analysis of fungus-derived FAD glucose dehydrogenase” (Scientific Reports, 2015).

The data set deals with the molecule itself. As to the kind of experiment: SEC; size exclusion chromatography of GOx as comparison to AfGDH; elution volume corresponding to the dimer; conditions not shown (Supplementary Figure S4).

B1: glucose oxidase (enzyme, UniProt P13006 17-605, looked up)
chain: LPHYIRSNGIEASLLTDPKDVSGRTVDYIIAGGGLTGLTTAARLTENPNISVLVIESGSYESDRGPIIEDLNAYGDIFGSSVDHAYETVELATNNQTALIRSGNGLGGSTLVNGGTWTRPHKAQVDSWETVFGNEGWNWDNVAAYSLQAERARAPNAKQIAAGHYFNASCHGVNGTVHAGPRDTGDDYSPIVKALMSAVEDRGVPTKKDFGCGDPHGVSMFPNTLHEDQVRSDAAREWLLPNYQRPNLQVLTGQYVGKVLLSQNGTTPRAVGVEFGTHKGNTHNVYAKHEVLLAAGSAVSPTILEYSGIGMKSILEPLGIDTVVDLPVGLNLQDQTTATVRSRITSAGAGQGQAAWFATFNETFGDYSEKAHELLNTKLEQWAEEAVARGGFHNTTALLIQYENYRDWIVNHNVAYSELFLDTAGVASFDVWDLLPFTRGYVHILDKDPYLHHFAYDPQYFLNELDLLGQAAATQLARNISNSGAMQTYFAGETIPGDNLAYDADLSAWTEYIPYHFRPNYHGVGTCSMMPKEMGGVVDNAARVYGVQGLRVIDGSIPPTQMSSHVMTVFYAMALKISDAILEDYASMQ
notes: glucose oxidase (GOx) used as the comparison in size exclusion chromatography; probably the glycosylated enzyme; also called GOx
As for B1, the “stoichiometry N” value amounted to 2.
